# Data: PMC8887544
# Biological target: Cas8f:Cas5f heterodimer (Xanthomonas albilineans, type I-F Cascade subunit) (Xanthomonas albilineans)
# Assay: ITC; 25°C; AcrIE4-F7 (250 μM) injected into Cas8f:Cas5f (35 μM) in the cell; 20 mM Tris-HCl pH 7.5, 150 mM NaCl, 1 mM TCEP
row,Substance,Kd
1,AcrIE4-F7 (natural protein),26 nM
2,"AcrIE4-F7^CTD (C-terminal domain of AcrIE4-F7, residues 53-119) (domain or fragment)",13 nM

# Biological target: (His)6-MBP-tagged Cas8e (P. aeruginosa, type I-E) (P. aeruginosa (PRD-10 genomic DNA))
# Assay: ITC; 25°C; 20 μM of either AcrIE4-F7 or (His)6-MBP tagged Cas8e in the cell, titrated with 150-200 μM of the partner, both directions; 20 mM HEPES pH 7.0, 150 mM NaCl, 1 mM TCEP, 5% glycerol; triplicate
Kd,dH,stoichiometry N,Substance
4800 nM,-11.1 kcal/mol,0.8,AcrIE4-F7(D30K/E31K) (natural protein)
140 nM,-18.1 kcal/mol,0.8,"AcrIE4-F7^NTD (N-terminal domain of AcrIE4-F7, residues 1-52) (domain or fragment)"
190 nM,-12.8 kcal/mol,0.9,AcrIE4-F7(E38K/D39K) (natural protein)
3500 nM,-5.6 kcal/mol,1.1,AcrIE4-F7(Y20A) (natural protein)
430 nM,-11.7 kcal/mol,1,AcrIE4-F7(E46K) (natural protein)
400 nM,-22.8 kcal/mol,0.8,AcrIE4-F7(E12K/D13K) (natural protein)

Substance,Kd,dH,stoichiometry N
AcrIE4-F7 (natural protein),200 nM,-14.7 kcal/mol,1
